Data taken from US20140056964A1, “GRANZYME B INHIBITOR COMPOSITIONS, METHODS AND USES FOR PROMOTING WOUND HEALING” (THE UNIVERSITY OF BRITISH COLUMBIA, priority 2010, published 2014).

Test system: wild type C57BL/6 mice
Assay: full thickness skin wound in mice, decorin immunohistochemistry of closed wound tissue
Type: in vivo, mouse
Conditions: 1 cm full thickness back wound, 60 μl applied directly onto the wound, 16 days
Method: As depicted in FIG. 23, decorin distribution is impacted by serpina3n in closed wound tissue. Seven week old wild type C57BL/6 mice were given a 1 cm diameter full thickness wound on their backs. Mice were then given either saline (upper panels) or the Granzyme B inhibitor, serpina3n (lower panels), by applying 60 μl of the appropriate solution directly onto the wound immediately following the wounding procedure. Wounds were allowed to heal for 16 days, at which point mice were sacrificed and the closed wound tissue harvested. […] Increased decorin throughout the newly formed dermis thus provides more organized collagen, less scarring and increased tensile strength.

B1: serpina3n: the Granzyme B inhibitor, serpina3n; Serpina3n is also known as SerpinA3 (protein, UniProt Q91WP6 21-418, looked up)
Serine protease inhibitor A3N: FPDGTLGMDAAVQEDHDNGTQLDSLTLASINTDFAFSLYKELVLKNPDKNIVFSPLSISAALAVMSLGAKGNTLEEILEGLKFNLTETSEADIHQGFGHLLQRLNQPKDQVQISTGSALFIEKRQQILTEFQEKAKTLYQAEAFTADFQQPRQAKKLINDYVRKQTQGMIKELVSDLDKRTLMVLVNYIYFKAKWKVPFDPLDTFKSEFYAGKRRPVIVPMMSMEDLTTPYFRDEELSCTVVELKYTGNASALFILPDQGRMQQVEASLQPETLRKWKNSLKPRMIDELHLPKFSISTDYSLEDVLSKLGIREVFSTQADLSAITGTKDLRVSQVVHKAVLDVAETGTEAAAATGVKFVPMSAKLYPLTVYFNRPFLIMIFDTETEIAPFIAKIANPK
- decorin distribution (immunohistochemistry) in newly formed dermis: intense decorin staining near the dermal-epidermal junction but also demonstrated intense decorin staining deeper into the dermis
